Measurements as given in patent US20250066745A1, “MUTANTS AND USE THEREOF” (BGI SHENZHEN, priority 2021, published 2025).

B1: F26I N27D V29D A30G A32E S33G A36T L40S del117-119 D139H: Gaussia luciferase mutant (protein)
chain: MGVKVLFALICIAVAEAKPTENNEDIDIDGVEGNFTTTDSDADRGKLPGKKLPLEVLKEMEANARKAGCTRGCLICLSHIKCTPKMKKFIPGRCHTYEGDKESAQGGIGEAIVDIPGFKDLEPMEQFIAQVDLCVHCTTGCLKGLANVQCSDLLKKWLPQRCATFASKIQGQVDKIKGAGGD
modifications: SIGNAL (1)..(17)
notes: Gaussia luciferase mutant
B2: V29A A30D V31I A32V S33N L40A: Gaussia luciferase mutant (protein)
chain: MGVKVLFALICIAVAEAKPTENNEDFNIADIVNNFATTDADADRGKLPGKKLPLEVLKEMEANARKAGCTRGCLICLSHIKCTPKMKKFIPGRCHTYEGDKESAQGGIGEAIVDIPEIPGFKDLEPMEQFIAQVDLCVDCTTGCLKGLANVQCSDLLKKWLPQRCATFASKIQGQVDKIKGAGGD
modifications: SIGNAL (1)..(17)
notes: Gaussia luciferase mutant
B3: F26C V29Y S33G A36I T37E L40T: Gaussia luciferase mutant (protein)
chain: MGVKVLFALICIAVAEAKPTENNEDCNIYAVAGNFIETDTDADRGKLPGKKLPLEVLKEMEANARKAGCTRGCLICLSHIKCTPKMKKFIPGRCHTYEGDKESAQGGIGEAIVDIPEIPGFKDLEPMEQFIAQVDLCVDCTTGCLKGLANVQCSDLLKKWLPQRCATFASKIQGQVDKIKGAGGD
modifications: SIGNAL (1)..(17)
notes: Gaussia luciferase mutant
B4: F26L N27D A30D V31L A32V S33N A36N T37A L40S: Gaussia luciferase mutant (protein)
chain: MGVKVLFALICIAVAEAKPTENNEDLDIVDLVNNFNATDSDADRGKLPGKKLPLEVLKEMEANARKAGCTRGCLICLSHIKCTPKMKKFIPGRCHTYEGDKESAQGGIGEAIVDIPEIPGFKDLEPMEQFIAQVDLCVDCTTGCLKGLANVQCSDLLKKWLPQRCATFASKIQGQVDKIKGAGGD
modifications: SIGNAL (1)..(17)
notes: Gaussia luciferase mutant
B5: F26I N27H V29G A32G S33D A36G T37L L40I: Gaussia luciferase mutant (protein)
chain: MGVKVLFALICIAVAEAKPTENNEDIHIGAVGDNFGLTDIDADRGKLPGKKLPLEVLKEMEANARKAGCTRGCLICLSHIKCTPKMKKFIPGRCHTYEGDKESAQGGIGEAIVDIPEIPGFKDLEPMEQFIAQVDLCVDCTTGCLKGLANVQCSDLLKKWLPQRCATFASKIQGQVDKIKGAGGD
modifications: SIGNAL (1)..(17)
notes: Gaussia luciferase mutant
B6: F26A N27D V29R A30G A32E S33G A36P L40A: Gaussia luciferase mutant (protein)
chain: MGVKVLFALICIAVAEAKPTENNEDADIRGVEGNFPTTDADADRGKLPGKKLPLEVLKEMEANARKAGCTRGCLICLSHIKCTPKMKKFIPGRCHTYEGDKESAQGGIGEAIVDIPEIPGFKDLEPMEQFIAQVDLCVDCTTGCLKGLANVQCSDLLKKWLPQRCATFASKIQGQVDKIKGAGGD
modifications: SIGNAL (1)..(17)
notes: Gaussia luciferase mutant
B7: F26I A30D A32V S33G A36D T37K L40V: Gaussia luciferase mutant (protein)
chain: MGVKVLFALICIAVAEAKPTENNEDINIVDVVGNFDKTDVDADRGKLPGKKLPLEVLKEMEANARKAGCTRGCLICLSHIKCTPKMKKFIPGRCHTYEGDKESAQGGIGEAIVDIPEIPGFKDLEPMEQFIAQVDLCVDCTTGCLKGLANVQCSDLLKKWLPQRCATFASKIQGQVDKIKGAGGD
modifications: SIGNAL (1)..(17)
notes: Gaussia luciferase mutant
B8: F26I N27D V29S A30G V31L A32V S33D A36V T37E L40G: Gaussia luciferase mutant (protein)
chain: MGVKVLFALICIAVAEAKPTENNEDIDISGLVDNFVETDGDADRGKLPGKKLPLEVLKEMEANARKAGCTRGCLICLSHIKCTPKMKKFIPGRCHTYEGDKESAQGGIGEAIVDIPEIPGFKDLEPMEQFIAQVDLCVDCTTGCLKGLANVQCSDLLKKWLPQRCATFASKIQGQVDKIKGAGGD
modifications: SIGNAL (1)..(17)
notes: Gaussia luciferase mutant
B9: V29S A30G V31I A32V S33G A36D T37A: Gaussia luciferase mutant (protein)
chain: MGVKVLFALICIAVAEAKPTENNEDFNISGIVGNFDATDLDADRGKLPGKKLPLEVLKEMEANARKAGCTRGCLICLSHIKCTPKMKKFIPGRCHTYEGDKESAQGGIGEAIVDIPEIPGFKDLEPMEQFIAQVDLCVDCTTGCLKGLANVQCSDLLKKWLPQRCATFASKIQGQVDKIKGAGGD
modifications: SIGNAL (1)..(17)
notes: Gaussia luciferase mutant
B10: E102K S103T E110A: Gaussia luciferase mutant (protein)
chain: MGVKVLFALICIAVAEAKPTENNEDFNIVAVASNFATTDLDADRGKLPGKKLPLEVLKEMEANARKAGCTRGCLICLSHIKCTPKMKKFIPGRCHTYEGDKKTAQGGIGAAIVDIPEIPGFKDLEPMEQFIAQVDLCVDCTTGCLKGLANVQCSDLLKKWLPQRCATFASKIQGQVDKIKGAGGD
modifications: SIGNAL (1)..(17)
notes: Gaussia luciferase mutant
B11: F26D N27D V290 A30D V31I S33R T37L: Gaussia luciferase mutant (protein)
chain: MGVKVLFALICIAVAEAKPTENNEDDDIVDIARNFALTDLDADRGKLPGKKLPLEVLKEMEANARKAGCTRGCLICLSHIKCTPKMKKFIPGRCHTYEGDKESAQGGIGEAIVDIPEIPGFKDLEPMEQFIAQVDLCVDCTTGCLKGLANVQCSDLLKKWLPQRCATFASKIQGQVDKIKGAGGD
B12: V29L A30G A32V S33G A36N T37A L40S: Gaussia luciferase mutant (protein)
chain: MGVKVLFALICIAVAEAKPTENNEDFNILGVVGNFNATDSDADRGKLPGKKLPLEVLKEMEANARKAGCTRGCLICLSHIKCTPKMKKFIPGRCHTYEGDKESAQGGIGEAIVDIPEIPGFKDLEPMEQFIAQVDLCVDCTTGCLKGLANVQCSDLLKKWLPQRCATFASKIQGQVDKIKGAGGD
modifications: SIGNAL (1)..(17)
notes: Gaussia luciferase mutant
B13: F26D N27H V29K A30G A32G S33L T37L L40R: Gaussia luciferase mutant (protein)
chain: MGVKVLFALICIAVAEAKPTENNEDDHIKGVGLNFALTDRDADRGKLPGKKLPLEVLKEMEANARKAGCTRGCLICLSHIKCTPKMKKFIPGRCHTYEGDKESAQGGIGEAIVDIPEIPGFKDLEPMEQFIAQVDLCVDCTTGCLKGLANVQCSDLLKKWLPQRCATFASKIQGQVDKIKGAGGD
modifications: SIGNAL (1)..(17)
notes: Gaussia luciferase mutant
B14: F26C V29L A30D V31L A32V S33G L40I: Gaussia luciferase mutant (protein)
chain: MGVKVLFALICIAVAEAKPTENNEDCNILDLVGNFATTDIDADRGKLPGKKLPLEVLKEMEANARKAGCTRGCLICLSHIKCTPKMKKFIPGRCHTYEGDKESAQGGIGEAIVDIPEIPGFKDLEPMEQFIAQVDLCVDCTTGCLKGLANVQCSDLLKKWLPQRCATFASKIQGQVDKIKGAGGD
modifications: SIGNAL (1)..(17)
notes: Gaussia luciferase mutant
B15: F26G N27Y A30D V31L A32V S33R A36M T37E L40G: Gaussia luciferase mutant (protein)
chain: MGVKVLFALICIAVAEAKPTENNEDGYIVDLVRNFMETDGDADRGKLPGKKLPLEVLKEMEANARKAGCTRGCLICLSHIKCTPKMKKFIPGRCHTYEGDKESAQGGIGEAIVDIPEIPGFKDLEPMEQFIAQVDLCVDCTTGCLKGLANVQCSDLLKKWLPQRCATFASKIQGQVDKIKGAGGD
modifications: SIGNAL (1)..(17)
notes: Gaussia luciferase mutant
B16: F26I V29F A30G A32E S33D A36N T37D L40T: Gaussia luciferase mutant (protein)
chain: MGVKVLFALICIAVAEAKPTENNEDINIFGVEDNFNDTDTDADRGKLPGKKLPLEVLKEMEANARKAGCTRGCLICLSHIKCTPKMKKFIPGRCHTYEGDKESAQGGIGEAIVDIPEIPGFKDLEPMEQFIAQVDLCVDCTTGCLKGLANVQCSDLLKKWLPQRCATFASKIQGQVDKIKGAGGD
modifications: SIGNAL (1)..(17)
notes: Gaussia luciferase mutant

Legend:
[1] = Luminescence activity assay of purified Gaussia luciferase mutants on coelenterazine; assay type: biochemical; design: key to Activity of mutant relative to wild-type Gaussia luciferase without the signal peptide: ratio of mutant luminescence intensity to wild-type Gaussia luciferase; conditions: Substrate CTZ (Table 16)
Method in brief: (§1)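 Readout: luminescence intensity, as ratio to signal-peptide-free wild-type enzyme. Enzyme 1 μg/mL, substrate 100 μM stock, 10 μL + 90 μL; buffer 50 mM Tris-HCl pH 8.0, 100 mM NaCl, 0.1% Tween-20.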

[2] = Luminescence activity assay of purified Gaussia luciferase mutants on coelenterazine derivative ZS2; assay type: biochemical; design: key to Activity of mutant relative to wild-type Gaussia luciferase without the signal peptide: ratio of mutant luminescence intensity to wild-type Gaussia luciferase; conditions: Substrate ZS2 (Table 16)
Method in brief: as §1

| Molecule | Activity of mutant relative to wild-type Gaussia luciferase without the signal peptide [1] | Activity of mutant relative to wild-type Gaussia luciferase without the signal peptide [2] |
| --- | --- | --- |
| B1 | 0.043 | 0.010 |
| B2 | 1.046 | 1.164 |
| B3 | 0.016 | 1.131 |
| B4 | 0.799 | 1.802 |
| B5 | 0.055 | 0.479 |
| B6 | 0.034 | 0.684 |
| B7 | 0.636 | 2.392 |
| B8 | 0.788 | 2.094 |
| B9 | 0.000 | 0.142 |
| B10 | 0.864 | 1.504 |
| B11 | 1.110 | 0.213 |
| B12 | 0.764 | 1.976 |
| B13 | 0.037 | 0.381 |
| B14 | 0.000 | 0.312 |
| B15 | 0.003 | 1.203 |
| B16 | 1.120 | 0.000 |
